Assay results reported in article PMC4066849 (Structure (London, England : 1993), 2014).

Target: the molecule itself
Assay: crystal structure

Protein | stoichiometry N
MiD51Δ1–133 (domain or fragment, mouse, UniProt Q8BGV8 134-463, looked up) SLQEKLLSYYRNRAAIPAGEQARAKQAAVDICAELRSFLRAKLPDMPLRDMYLSGSLYDDLQVVTADHIQLIVPLVLEQNLWSCIPGEDTIMNVPGFFLVRRENPEYFPRGSSYWDRCVVGGYLSPKTVADTFEKVVAGSINWPAIGSLLDYVIRPAPPPEALTLEVQYEKDKHLVIDFLPSVTLGDTVLVARPHRLAQYDNLWRLSLRPAETARLRALDQADSGCRSLCLKILKAICKSTPALGHLTASQLTNVILHLAQEEADWSPDMLADRFLQALRGLISYLEAGVLPSALNPKVNLFAELTPQEIDELGYTLYCSLSEPEVLLQT | 2
MiD51 H201A mutant (MiD51Δ1–133 H201A) (domain or fragment, mouse, UniProt Q8BGV8 134-463, looked up) SLQEKLLSYYRNRAAIPAGEQARAKQAAVDICAELRSFLRAKLPDMPLRDMYLSGSLYDDLQVVTADAIQLIVPLVLEQNLWSCIPGEDTIMNVPGFFLVRRENPEYFPRGSSYWDRCVVGGYLSPKTVADTFEKVVAGSINWPAIGSLLDYVIRPAPPPEALTLEVQYEKDKHLVIDFLPSVTLGDTVLVARPHRLAQYDNLWRLSLRPAETARLRALDQADSGCRSLCLKILKAICKSTPALGHLTASQLTNVILHLAQEEADWSPDMLADRFLQALRGLISYLEAGVLPSALNPKVNLFAELTPQEIDELGYTLYCSLSEPEVLLQT | 2
